# Assay: yeast display, Sf9 membrane polyspecificity reagent, FACS + sequencing; frameworks hold sequencing errors
# Summary of the method: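 Sorting gates, low and high (top ~1%), were placed on anti-HA fluorescence to track expression and on streptavidin fluorescence to track reagent binding. A clone's polyreactivity label is taken from the gate it came out of. The reagent was 10% biotinylated, detergent-solubilized Sf9 membrane, applied for 1 hour at 4 °C to galactose-induced yeast display cells.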
row,Sequence,polyreactivity (PSR sort gate)
1,QVQLVESGGGLVQAGGSLRLSCAASGRTFEHYGMGWYRQAPGKEREFVADISRIGGSTYADSVKGRFTISRDNAKNTVYLQKNSLKPEDSAVYYCNKARYQLGSGYNYWGQGTQVTVSS,low polyreactivity
2,QVQLVESGGGLVQAGGSLRLSCAASGRTFEIYAMGWYRHAPGKERELVAAISSSGGSTYYADSVKGRFTISRDNAKNTVYLQMNSLKPEDTAVYYCAARYRATLTRTRVGYWGQGTQLTVSS,high polyreactivity
3,QVQLVESGGGLVQAGGSLRLSCAASGRTFEKNAMGWYRQAPGKERELVASITSVGSTDYADSVKGRFTISRDNAKNTVYLQMNSLKPEDTAVYYCAKTLGSQNYDFDYWGQGTQVTVSS,low polyreactivity
4,QVQLVESGGGLVQAGGSLRLSCAASGRTFEVYAMGLYRQAPGKERELVATITYSGGITYYADSVKGRFTISRDNAKNTVYLQMNSLKPEDTAVYYPIGVRGDYDYWGQGTQVTVSS,low polyreactivity
5,QVQLVESGGGLVQAGGSLRLSCAASGRTFEWNAMGWYRQAPGKERELVAAITKRGGITYYADSVKGRFTISRDNAKNTVYLQMNSLKPEDTAVYYCAKRIVFYGRYDYWGQGTQVTVSS,high polyreactivity
6,QVQLVESGGGLVQAGGSLRLSCAASGRTFEYYAMGWYRQAPGKEREFVAAISRSGGSTYYADSVKGRFTISRDNAKNTVYLQMNSLKPEDTAVYYCAASAIRRSQRFYHWGQGTQVTVSS,high polyreactivity
7,QVQLVESGGGLVQAGGSLRLSCAASGRTFFANAMGWYRQAPGKERELVAAISGSGDRTYYADSVKGRFTISRDNAKNTVYLQMNSLKPEDTAVYYCAAAGWSARGYNYWGQGTQVTVSS,high polyreactivity
8,QVQLVESGGGLVQAGGSLRLSCAASGRTFFDYAMGWYRQAPGKEWELVAAITASGSSTYYADSVKGRFTISRDNAKNTVYLQMNSLKPDDTAVYYCAAGASANKKITSYDYWGQGTQVTVSS,low polyreactivity
9,QVQLVESGGGLVQAGGSLRLSCAASGRTFFDYTMGWYRQAPGKERELVAAITGGDGSTYYADSVKGRFTISRDNAKTTVYLQMNSLKPEDTAVYDCAAEYTRTYWYAAMDYWGQGTQVTVSS,low polyreactivity
10,QVQLVESGGGLVQAGGSLRLSCAASGRTFFGYAMGWYRQAPGKEREFVAAISGSGGSTYYADSVKGRFTISRDNAKNTVYLQMNSLKPEDTAVYYCNGDYWGEYYYWGQGTQVSVSS,low polyreactivity
11,QVQLVESGGGLVQAGGSLRLSCAASGRTFFGYAMGWYRQAPGKERELVATISGSGASTYYADSVKGRFTISRDNAKNTVYLQMNSLKPEDTAVYYCAVRLYFYQRNYYSWGQGTQVTVSS,high polyreactivity
12,QVQLVESGGGLVQAGGSLRLSCAASGRTFFGYAMGWYRQAPGTERELVAAINWGGASTYYADSVKGRFTISRDNAKNTVYLQMNSLKPEATAVYYCAADSVPSRPTYGRYDYWGQGTQVTVSS,low polyreactivity
13,QVQLVESGGGLVQAGGSLRLSCAASGRTFFHYAMGWYRQAPRKERELVAAISSGGGTYADSVKGRFTISRDNAKNTVYLQMNSLKPEDTAVYYCNADTDSAKSPAYYYWGQGTQVTVSS,low polyreactivity
14,QVQLVESGGGLVQAGGSLRLSCAASGRTFFIYAMGWYRQAPGKERELVAAIRWRGGSTYYADSVKGRFTISRDNAKNTVYLQMNSLKPEDTAVYYCAASNRQARYEDYYWGQGTQVTVSS,high polyreactivity
15,QVQLVESGGGLVQAGGSLRLSCAASGRTFFKYAMGWYRQAPGKERELVAAITGRGGSTYADSVKGRFTISRDNAKNTVYLQMNCLKPEDTAVYYCAKVFQRGAQYYYYKYDYWGQGTQVTVSS,high polyreactivity
16,QVQLVESGGGLVQAGGSLRLSCAASGRTFFPNAMGWYRQAPGKERELVAAISSGGSTYYADSVKGRFTISRDNAKNTVYLQMNSLKPEDTAVYYCAVYGFYSKYGYWGQGTQVTVSS,high polyreactivity
17,QVQLVESGGGLVQAGGSLRLSCAASGRTFFRNAMGWYRQAPAKERELVAGISRSGGSTYYADSVKGRFTISRDNAQNTFSLEMNSLKPEDSAVYYFAAALYPYPGYEYWGQGTQVTVSS,high polyreactivity
18,QVQLVESGGGLVQAGGSLRLSCAASGRTFFRNAMGWYRQAPGKERELVAGISRSGGSTYYADSVKGRFTISRDNAKNTVYLQMNSLKPEDTAVYYCAASFRFYRTGYYYWGQGTQVTVSS,high polyreactivity
19,QVQLVESGGGLVQAGGSLRLSCAASGRTFFRNAMGWYRQAPGKERELVAGMSSSGGRTYADSVKGRYTISRDNAKNTVYLQMNSLKPEDTAVYYCAVQSGWVSGLRYYYWGQGTQVTVSS,high polyreactivity
20,QVQLVESGGGLVQAGGSLRLSCAASGRTFFRYVMGWYRQAPGKERELVAAISRSGGSTYYADSVKGRFTISRDNAKNTVYLQMNSLKPEDTAVYYCNTVARSTVVPTEFDYWGQGTQVTVSS,high polyreactivity
21,QVQLVESGGGLVQAGGSLRLSCAASGRTFFSFNAMVWYRQPPGKERELVAAIDGDGGITYYADSVKGRFTISRDNAKNTVYLQMNSLKPEDTAVYYCAAETLYSSAGEDDYWGQGTQVTVSS,low polyreactivity
22,QVQLVESGGGLVQAGGSLRLSCAASGRTFFSYTMGWYRPAPGKERELFAAIYDSDGRTYYADSVKVRFTISRDNAKNTVYLQMYSLKPEDTAVYYCAAVPDKYWSRVRRYLFEHNYWGQGTKVTVSS,low polyreactivity

row,Sequence,polyreactivity (PSR sort gate)
1,QVQLVESGGGLVQAGGSLRLSCAASGRTFFTYAMGWYRQAPGKERELVAAITYRGGGTYYADSVKGRFTISRDNAKNTVYLQMNSLKPEDTAVYYCAAEYWVGVYLYDYWGQGTQVTVSS,high polyreactivity
2,QVQLVESGGGLVQAGGSLRLSCAASGRTFFVNAMGWYRPAPGKERELVAAITWSGGSTYYADSVKGRFTISRDNAKNTVYLQMNSLKAEDTAVYYCNADYQWYLGGYDYWGQGTQVTVSS,high polyreactivity
3,QVQLVESGGGLVQAGGSLRLSCAASGRTFFVNAMGWYRQAPGKERELVAAITWSGGSTYYADSVKGRFTISRDNAKNTVYLQMNSLKPEDTAVYYCAAEYYSYSYSYYYYGYEYWGQGTQVTVSS,high polyreactivity
4,QVQLVESGGGLVQAGGSLRLSCAASGRTFFVYAMGWYRPAPGKERELVASITLSGGSTYYADSVKGRFTISRDKAKNTVYLQINSLKREDTAGYYCAKGWSRDNDLEREDEYWGHGTQVTVSS,low polyreactivity
5,QVQLVESGGGLVQAGGSLRLSCAASGRTFFVYAMGWYRQAPGKERELVAAISRGGRTYYADSVKGRFTISRDNAKNTVYLQMNSLKPEDTAVYYCAAESWYQQGDYWGQGTQVTVSS,low polyreactivity
6,QVQLVESGGGLVQAGGSLRLSCAASGRTFFYYAMGWYRQAPGKERELVAAITTDGGTTSYADSVKGRFTISRDNAKNTVSLQMNSLKPEETAVYYCAADASYQYYPYDYWGQGTQVTVSS,low polyreactivity
7,QVQLVESGGGLVQAGGSLRLSCAASGRTFFYYAMGWYRQAPGKERELVAGITKRGGSTYYADSVKGRFTISRDNAKNSVYLQMNSLKPEDSAVYYCAKSFTQSSTDGYWGQGTQVNVSS,high polyreactivity
8,QVQLVESGGGLVQAGGSLRLSCAASGRTFFYYAMGWYRQSPGKERELVATITGIGGSTYADSVKGRFTISRDNAKNTVYLQMNSLKPEDTAVYYCNAERGVYWGRYPYKYDYWGQGTQVTVSS,low polyreactivity
9,QVQLVESGGGLVQAGGSLRLSCAASGRTFFYYTMGWYRQAPGKERELVAAITYSGTSTYYADSVKGRFTISRDNAKNTVYLQMNSLKPEDTAVYYCAADWYVTHQGYTSGIWYVEYDYWGQGTQVTVSS,low polyreactivity
10,QVQLVESGGGLVQAGGSLRLSCAASGRTFGANAMGWYRQAPGKERELVAASTQDGGSTYYADSVKGRFTISRDNAKNTVYLQMNSLKPEDTAVYYCAADLVVFVQFDVAVDYYYWGQGTQVTVSS,low polyreactivity
11,QVQLVESGGGLVQAGGSLRLSCAASGRTFGENAMGWYRQAPGKERELVAAITGGDSTNYADSVKGRFTISRDNAKNTVYLQMNSLKPEDTAVYYCAAYGVKVLWTLTTYDYWGQGTQVTVSS,low polyreactivity
12,QVQLVESGGGLVQAGGSLRLSCAASGRTFGFNVMGWYRQAPGKERELVAAISWSGGSTYYADSVKGRFTISRENAKNTVYLQMNSLKPEDTAVYSCNKRYVHRYGYWGQGTQVTVTS,low polyreactivity
13,QVQLVESGGGLVQAGGSLRLSCAASGRTFGFYAMGWYRQAPGKERELVATISSSGGSTYYADSVKGRFTISRDNAKNTVYLQMNSLKPEDTAVYYCAKVVSGWRSHYIGDYWGQGTQVTVSS,low polyreactivity
14,QVQLVESGGGLVQAGGSLRLSCAASGRTFGFYGMGWYRQAPGKEREFVAAITRRGGSTYYADSVKGRFTISRDNAKNTVYLQMNSLNPEDTAVYYCNAARGAYYRWWGFGSDYWGQGTQVTVSS,high polyreactivity
15,QVQLVESGGGLVQAGGSLRLSCAASGRTFGFYTMGWYRPAPGKERELVAAITSRGGITTYADSVKGRFTISRDNAKNTVYLQLNSLIPEDTAVYYCAASLRAPSLGHYYYWGQGTQVTVSS,high polyreactivity
16,QVQLVESGGGLVQAGGSLRLSCAASGRTFGGNAMGWYRQAPGKERELVASITKRSGSTYYADSVKGRFTISRDNAKNTVYLQMNSLKPEDTAVYYCNTKPSYYFFANTYYGYNDDYWGQGTQVTVSS,high polyreactivity
17,QVQLVESGGGLVQAGGSLRLSCAASGRTFGGNAMGWYRQAPGKERELVAVIRSTGGSTYYADSVKGRFTISRDNAKNTVYLQMNSLKPEDTAVYYCAKGRGRNFGYWGQGTQVTVSS,high polyreactivity
18,QVQLVESGGGLVQAGGSLRLSCAASGRTFGGNSMGWYRQAPGKERELVAAISGSGGSTYYADSVKGRFTISRDNAKNTVYLQMNSLKPEDTAVYYCAKASRKGWRYDSWGQGTQVTVSS,high polyreactivity
19,QVQLVESGGGLVQAGGSLRLSCAASGRTFGGNTMGWSRQAPGKERELVAAISSGGSTYYADSVKGRFTISRDNAKNTVYLQMNSLKPEDTAVYYCAKSDPVGYYWDDPVTFDYWGQGTQVTVSS,low polyreactivity
20,QVQLVESGGGLVQAGGSLRLSCAASGRTFGGYAMGWYRQAPGKERELVAAISKRSGSTYYADSVKGRFTISRDNAKNTVYLQMNSLKPEDTAVYYCNKVWFQRSVQPVEYDYWGQGTQVTVSS,high polyreactivity
21,QVQLVESGGGLVQAGGSLRLSCAASGRTFGGYAMGWYRQAPGKERELVAAISKSGGSTYYAVSVKGRFTISRDTAKNTVYLQMNSLKPEDTAVYYCAAQGSSYSTRVWRRYYYWGQGTQVTVSS,high polyreactivity

# Reference: the nanobody polyreactivity screen of Harvey et al. (2022)
